Results taken from US4585754A, “Stabilization of proteins and peptides by chemical binding with chondroitin” (Valcor Scientific, Ltd., priority 1984, dated 1986).

How the values were obtained:
trypsin = assay: stability against proteolytic digestion by trypsin; format: in vitro ADME; details: 50 mcg./ml. trypsin, pH 7.8, 23 C, 10 mg./ml., after just over forty minutes
Procedure: (§1) The SOD-chondroitin sulfate A product was tested for stability against proteolytic digestion. An aqueous solution containing 10 mg./ml. of the product was incubated with 50 mcg./ml. of trypsin at pH 7.8 and 23 C, and aliquots were withdrawn from time to time and the SOD activity determined. For comparison, SOD alone with incubated with trypsin under the same conditions. After just over forty minutes, approximately 88 percent of the SOD-chondroitin product remained in the solution, compared with only about 8 percent of the unprotected SOD. This is a difference in stability of over eight-fold.

pepsin = assay: stability against proteolytic digestion by pepsin; format: in vitro ADME; details: pepsin 500 ng./ml., pH 3.5, at two minutes
Procedure: as §1
Inasmuch as trypsin is known to be a very specific protease, cleaving only at the arginine and lysine residues, a further test was carried out according to substantially the same procedure using pepsin, a much more vigorous protease. The pH was kept low (3.5), since the optimum pH for pepsin is known to about 1.0-1.5. Even at the lowest concentration of pepsin tested (500 ng./ml.), digestion was very fast, but there was some degree of protection by the chondroitin compared with unprotected SOD.

[1] = native, unmodified protein; cited from earlier work
blood glucose levels = assay: lowering blood glucose levels in mice, bound versus free insulin; format: in vivo, Female CD-1 Swiss white mice; details: subcutaneous, fasted mice
Procedure: Female CD-1 Swiss white mice averaging 20 g in weight were fasted overnight and used in groups of four. The insulins were injected subcutaneously, and blood specimens (50 microliters, by retro-orbital bleeding) were taken at intervals of 0.5, 3, 6, and 24 hours.

Substance: superoxide dismutase [unprotected SOD]
- percent remaining in the solution (SOD activity) (trypsin): about 8%
- SOD remaining after pepsin digestion (pepsin): essentially all destroyed
- half-life in the body [1]: about five

Substance: insulin [free insulin]
- blood glucose level at 24 hours (blood glucose levels; all dose levels, 24 hours): significant rebound glucose level by 24 hours
- comatose state (blood glucose levels; doses of 5.7 micrograms and above): comatose in one-half hour
- half-life in the body [1]: about 15 minutes
